# Test results: US20250043003A1 (ONCOC4, published 2025)
# T1: CTLA-4 (antigen of the affinity measurement of Table 1) (UniProt P16410 36-161, limits assumed)
# T1 construct: Antigen form and method of the KD measurement are not described
# T1 sequence (looked up): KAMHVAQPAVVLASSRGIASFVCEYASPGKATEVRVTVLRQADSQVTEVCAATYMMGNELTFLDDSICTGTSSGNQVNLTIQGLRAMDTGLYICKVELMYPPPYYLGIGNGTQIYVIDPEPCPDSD
# T2: His-hCTLA-4 (polyhistidine-tagged CTLA-4) (human, UniProt P16410 36-161)
# T2 construct: Coated on ELISA plates at 0.5 ug/ml; not shown: polyhistidine tag
# T2 sequence (looked up): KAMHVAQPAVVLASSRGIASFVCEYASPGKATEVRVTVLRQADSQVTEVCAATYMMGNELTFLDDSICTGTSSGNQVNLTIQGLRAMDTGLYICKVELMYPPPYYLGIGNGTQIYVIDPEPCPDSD
# Tests used:
# [1] = target: His-hCTLA-4 (polyhistidine-tagged CTLA-4) (human) (UniProt P16410); assay: ELISA, plate-coated His-hCTLA-4, antibody 1 ug/ml, pH 5.5 against pH 7.0
# [2] = target: T1, CTLA-4 (antigen of the affinity …); assay: affinity, method not stated
# [3] = target: T2, His-hCTLA-4 (polyhistidine-tagged …); assay: ELISA, plate-coated His-hCTLA-4, antibody 1 ug/ml, pH 5.5 against pH 7.0
# Description: FIG. 1A-B. pH-sensitivity of TremeIgG1 and its variants. His-hCTLA-4 (0.5 μg/ml) was coated in ELISA plates and different anti-CTLA-4 mAbs were added at 1 μg/ml in the buffer over a pH range of 4.5 to 7.0. pH indicated represents binding and washing conditions. Antibodies bound to CTLA-4 were measured using horse-radish perioxidase-labeled anti-human IgG antibodies.
# In order to validate the approach, the activity of the Tremelimumab mutant antibodies was evaluated. To determine if the introduction of histidine to the CDR regions affects the pH sensitivity of the antibodies, the antibody binding to its antigen, polyhistidine-tagged CTLA-4, was measured over a pH range. As a control, HL12, which is known to bind CTLA-4 in a pH-dependent manner, with reduced binding at low/acidic pH, was used.
Binder,binding at pH 5.5 relative to neutral pH (pH 7.0) [1],Kd [2],binding at pH 5.5 relative to neutral pH (pH 7.0) [3]
"HL12 (antibody, from another filing, V domains shown) VH: QVQLQESGPGLVKPSETLSLTCTVSGFSLTSYGLSWIRQPPGKGLEWIGYIWYDGNTNFHPSLKSRVTISKDTSKNQFSLKLSSVTAADTAVYYCAKTEGHYYGSNYGYYALDYWGQGTSVTVSS VL: DIQMTQSPSSLSASVGDRVTITCRASENIYSNLAWYQQKQGKAPKLLLYAATNLQDGVPSRFSGSGSGTDYTLTISSLQPEDFATYFCQHLWGTPYTFGQGTKLEIK",< 50%,,
"AB139 (TremeIgG1) (antibody, V domains shown, Tremelimumab variable regions; also called mAb139; WT TremeIgG1) VH: QVQLVESGGGVVQPGRSLRLSCAASGFTFSSYGMHWVRQAPGKGLEWVAVIWYDGSNKYYADSVKGRFTISRDNSKNTLYLQMNSLRAEDTAVYYCARDPRGATLYYYYYGMDVWGQGTTVTVSS VL: DIQMTQSPSSLSASVGDRVTITCRASQSINSYLDWYQQKPGKAPKLLIYAASSLQSGVPSRFSGSGSGTDFTLTISSLQPEDFATYYCQQYYSTPFTFGPGTKVEIKR",,0.147 nM,
"AB159 (antibody, IgG1, V domains shown, TremeIgG1 mutant, IgG1; also called TremeIgG1M) VH: QVQLVESGGGVVQPGRSLRLSCAASGFTFSSYGMHWVRQAPGKGLEWVAVIWYDGSNKHHADSVKGRFTISRDNSKNTLYLQMNSLRAEDTAVYYCARDPRGATLYYYYYGMDVWGQGTTVTVSS VL: DIQMTQSPSSLSASVGDRVTITCRASQSINSYLDWYQQKPGKAPKLLIYAASSLQSGVPSRFSGSGSGTDFTLTISSLQPEDFATYYCQQYYSTPFTFGPGTKVEIKR",,0.387 nM,≥ 75%
"AB156 (antibody, IgG1, V domains shown, TremeIgG1 mutant, IgG1; also called Mab156; TremeIgG1M) VH: QVQLVESGGGVVQPGRSLRLSCAASGFTFSSYGMHWVRQAPGKGLEWVAVIWYDGSNKYYADSVKGRFTISRDNSKNTLYLQMNSLRAEDTAVYYCARDPRGATLHHHYYGMDVWGQGTTVTVSS VL: DIQMTQSPSSLSASVGDRVTITCRASQSINSYLDWYQQKPGKAPKLLIYAASSLQSGVPSRFSGSGSGTDFTLTISSLQPEDFATYYCQQYYSTPFTFGPGTKVEIKR",,4.46 nM,≤ 50%
"AB158 (antibody, IgG1, V domains shown, TremeIgG1 mutant, IgG1; also called TremeIgG1M) VH: QVQLVESGGGVVQPGRSLRLSCAASGFTFSSYGMHWVRQAPGKGLEWVAVIWYDGSNKYYADSVKGRFTISRDNSKNTLYLQMNSLRAEDTAVYYCARDPRGATLYHYYYGMDVWGQGTTVTVSS VL: DIQMTQSPSSLSASVGDRVTITCRASQSINSYLDWYQQKPGKAPKLLIYAASSLQSGVPSRFSGSGSGTDFTLTISSLQPEDFATYYCQQYYSTPFTFGPGTKVEIKR",,0.542 nM,≥ 75%
"AB154 (antibody, V domains shown, TremeIgG1 mutant, IgG1; also called mAb154; TremeIgG1M) VH: QVQLVESGGGVVQPGRSLRLSCAASGFTFSHHGMHHVRQAPGKGLEWVAVIWYDGSNKYYADSVKGRFTISRDNSKNTLYLQMNSLRAEDTAVYYCARDPRGATLYYYYYGMDVWGQGTTVTVSS VL: DIQMTQSPSSLSASVGDRVTITCRASQSINSYLDWYQQKPGKAPKLLIYAASSLQSGVPSRFSGSGSGTDFTLTISSLQPEDFATYYCQQYYSTPFTFGPGTKVEIKR",,1.23 nM,
"AB157 (antibody, IgG1, V domains shown, TremeIgG1 mutant, IgG1; also called TremeIgG1M) VH: QVQLVESGGGVVQPGRSLRLSCAASGFTFSSYGMHWVRQAPGKGLEWVAVIWYDGSNKYYADSVKGRFTISRDNSKNTLYLQMNSLRAEDTAVYYCARDPRGATLYHHYYGMDVWGQGTTVTVSS VL: DIQMTQSPSSLSASVGDRVTITCRASQSINSYLDWYQQKPGKAPKLLIYAASSLQSGVPSRFSGSGSGTDFTLTISSLQPEDFATYYCQQYYSTPFTFGPGTKVEIKR",,2.32 nM,≤ 50%
